# Assay results taken from IntAct's records for PubMed 24630722.
# B1: Interferon-inducible protein AIM2 (Homo sapiens), O14862 (parent)
# chain: MESKYKEILLLTGLDNITDEELDRFKFFLSDEFNIATGKLHTANRIQVATLMIQNAGAVSAVMKTIRIFQKLNYMLLAKRLQEEKEKVDKQYKSVTKPKPLSQAEMSPAASAAIRNDVAKQRAAPKVSPHVKPEQKQMVAQQESIREGFQKRCLPVMVLKAKKPFTFETQEGKQEMFHATVATEKEFFFVKVFNTLLKDKFIPKRIIIIARYYRHSGFLEVNSASRVLDAESDQKVNVPLNIIRKAGETPKINTLQTQPLGTIVNGLFVVQKVTEKKKNILFDLSDNTGKMEVLGVRNEDTMKCKEGDKVRLTFFTLSKNGEKLQLTSGVHSTIKVIKAKKKT
# Variants of: B1
# Settings: with asc_human PYCARD
row,effect of a mutation on the interaction,Variant
1,disrupting interaction strength,MESKYKEILLLTGLDNITDEELDEFKFFLSDEFNIATGKLHTANRIQVATLMIQNAGAVSAVMKTIRIFQKLNYMLLAKRLQEEKEKVDKQYKSVTKPKPLSQAEMSPAASAAIRNDVAKQRAAPKVSPHVKPEQKQMVAQQESIREGFQKRCLPVMVLKAKKPFTFETQEGKQEMFHATVATEKEFFFVKVFNTLLKDKFIPKRIIIIARYYRHSGFLEVNSASRVLDAESDQKVNVPLNIIRKAGETPKINTLQTQPLGTIVNGLFVVQKVTEKKKNILFDLSDNTGKMEVLGVRNEDTMKCKEGDKVRLTFFTLSKNGEKLQLTSGVHSTIKVIKAKKKT [R24E]
2,disrupting interaction strength,MESKYKEILLLTGLDNITDEELDRFKFFLSDEFNIATGKLHTANRIQVATLMIQNAGAVSAVMKTIRIFQKLNRMLLAKRLQEEKEKVDKQYKSVTKPKPLSQAEMSPAASAAIRNDVAKQRAAPKVSPHVKPEQKQMVAQQESIREGFQKRCLPVMVLKAKKPFTFETQEGKQEMFHATVATEKEFFFVKVFNTLLKDKFIPKRIIIIARYYRHSGFLEVNSASRVLDAESDQKVNVPLNIIRKAGETPKINTLQTQPLGTIVNGLFVVQKVTEKKKNILFDLSDNTGKMEVLGVRNEDTMKCKEGDKVRLTFFTLSKNGEKLQLTSGVHSTIKVIKAKKKT [Y74R]
3,disrupting interaction strength,MESKYKEILLLTGLRNITDEELDRFKFFLSDEFNIATGKLHTANRIQVATLMIQNAGAVSAVMKTIRIFQKLNYMLLAKRLQEEKEKVDKQYKSVTKPKPLSQAEMSPAASAAIRNDVAKQRAAPKVSPHVKPEQKQMVAQQESIREGFQKRCLPVMVLKAKKPFTFETQEGKQEMFHATVATEKEFFFVKVFNTLLKDKFIPKRIIIIARYYRHSGFLEVNSASRVLDAESDQKVNVPLNIIRKAGETPKINTLQTQPLGTIVNGLFVVQKVTEKKKNILFDLSDNTGKMEVLGVRNEDTMKCKEGDKVRLTFFTLSKNGEKLQLTSGVHSTIKVIKAKKKT [D15R]
4,disrupting interaction strength,MESKYKEILAATGLDNITDEELDRFKFFLSDEFNIATGKLHTANRIQVATLMIQNAGAVSAVMKTIRIFQKLNYMLLAKRLQEEKEKVDKQYKSVTKPKPLSQAEMSPAASAAIRNDVAKQRAAPKVSPHVKPEQKQMVAQQESIREGFQKRCLPVMVLKAKKPFTFETQEGKQEMFHATVATEKEFFFVKVFNTLLKDKFIPKRIIIIARYYRHSGFLEVNSASRVLDAESDQKVNVPLNIIRKAGETPKINTLQTQPLGTIVNGLFVVQKVTEKKKNILFDLSDNTGKMEVLGVRNEDTMKCKEGDKVRLTFFTLSKNGEKLQLTSGVHSTIKVIKAKKKT [L10A;L11A]
5,decreasing interaction strength,MESKYKEILLLTGLDNITDEELDRFKFFLSDEFNIATEKLHTANRIQVATLMIQNAGAVSAVMKTIRIFQKLNYMLLAKRLQEEKEKVDKQYKSVTKPKPLSQAEMSPAASAAIRNDVAKQRAAPKVSPHVKPEQKQMVAQQESIREGFQKRCLPVMVLKAKKPFTFETQEGKQEMFHATVATEKEFFFVKVFNTLLKDKFIPKRIIIIARYYRHSGFLEVNSASRVLDAESDQKVNVPLNIIRKAGETPKINTLQTQPLGTIVNGLFVVQKVTEKKKNILFDLSDNTGKMEVLGVRNEDTMKCKEGDKVRLTFFTLSKNGEKLQLTSGVHSTIKVIKAKKKT [G38E]
6,disrupting interaction strength,MESKYKEILLLTGLDNITDEELDRFKGFLSDEFNIATGKLHTANRIQVATLMIQNAGAVSAVMKTIRIFQKLNYMLLAKRLQEEKEKVDKQYKSVTKPKPLSQAEMSPAASAAIRNDVAKQRAAPKVSPHVKPEQKQMVAQQESIREGFQKRCLPVMVLKAKKPFTFETQEGKQEMFHATVATEKEFFFVKVFNTLLKDKFIPKRIIIIARYYRHSGFLEVNSASRVLDAESDQKVNVPLNIIRKAGETPKINTLQTQPLGTIVNGLFVVQKVTEKKKNILFDLSDNTGKMEVLGVRNEDTMKCKEGDKVRLTFFTLSKNGEKLQLTSGVHSTIKVIKAKKKT [F27G]
7,decreasing interaction strength,MESKYKEILLLTGLDNITDEELDRFKFFLSDEFNIATGELHTANRIQVATLMIQNAGAVSAVMKTIRIFQKLNYMLLAKRLQEEKEKVDKQYKSVTKPKPLSQAEMSPAASAAIRNDVAKQRAAPKVSPHVKPEQKQMVAQQESIREGFQKRCLPVMVLKAKKPFTFETQEGKQEMFHATVATEKEFFFVKVFNTLLKDKFIPKRIIIIARYYRHSGFLEVNSASRVLDAESDQKVNVPLNIIRKAGETPKINTLQTQPLGTIVNGLFVVQKVTEKKKNILFDLSDNTGKMEVLGVRNEDTMKCKEGDKVRLTFFTLSKNGEKLQLTSGVHSTIKVIKAKKKT [K39E]
